From patent US10450368 (DUKE UNIVERSITY, dated 2019)

T1: SSB (UniProt P05455 1-408)
T1 sequence: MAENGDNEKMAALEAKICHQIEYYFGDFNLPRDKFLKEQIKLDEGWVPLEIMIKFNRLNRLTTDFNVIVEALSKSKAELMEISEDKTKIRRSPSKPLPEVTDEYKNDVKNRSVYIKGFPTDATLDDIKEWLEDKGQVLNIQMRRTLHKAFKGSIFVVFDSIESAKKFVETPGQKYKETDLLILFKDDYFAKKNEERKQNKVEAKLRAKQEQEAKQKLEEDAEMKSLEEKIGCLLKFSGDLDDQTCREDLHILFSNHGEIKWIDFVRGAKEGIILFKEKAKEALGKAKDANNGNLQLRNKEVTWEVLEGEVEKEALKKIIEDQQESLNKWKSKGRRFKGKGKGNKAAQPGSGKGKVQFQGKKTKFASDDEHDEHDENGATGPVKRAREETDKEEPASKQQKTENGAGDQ

T2: Scl-70 (UniProt P11387 1-765)
T2 sequence: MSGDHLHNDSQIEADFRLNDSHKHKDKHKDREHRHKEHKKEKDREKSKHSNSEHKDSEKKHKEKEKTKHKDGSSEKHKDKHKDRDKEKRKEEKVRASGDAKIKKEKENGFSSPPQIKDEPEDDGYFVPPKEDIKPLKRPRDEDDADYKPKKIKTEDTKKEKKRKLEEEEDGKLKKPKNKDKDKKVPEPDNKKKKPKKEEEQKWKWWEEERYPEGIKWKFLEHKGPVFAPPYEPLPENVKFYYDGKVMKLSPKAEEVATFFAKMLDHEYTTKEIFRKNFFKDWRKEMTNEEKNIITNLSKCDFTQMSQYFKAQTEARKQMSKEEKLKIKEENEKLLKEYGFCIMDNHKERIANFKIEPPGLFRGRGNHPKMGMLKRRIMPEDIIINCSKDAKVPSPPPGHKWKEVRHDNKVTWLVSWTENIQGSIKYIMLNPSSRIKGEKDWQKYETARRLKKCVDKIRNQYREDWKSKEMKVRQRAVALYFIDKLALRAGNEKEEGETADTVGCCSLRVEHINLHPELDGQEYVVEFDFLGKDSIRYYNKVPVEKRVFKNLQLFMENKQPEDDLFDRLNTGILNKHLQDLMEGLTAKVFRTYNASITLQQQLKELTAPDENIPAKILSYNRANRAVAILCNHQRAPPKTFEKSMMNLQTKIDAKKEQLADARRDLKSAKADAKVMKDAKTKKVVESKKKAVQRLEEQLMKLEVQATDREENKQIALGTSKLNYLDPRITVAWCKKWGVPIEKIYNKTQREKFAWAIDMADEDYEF

T3: Jo-1 (UniProt P12081 1-509)
T3 sequence: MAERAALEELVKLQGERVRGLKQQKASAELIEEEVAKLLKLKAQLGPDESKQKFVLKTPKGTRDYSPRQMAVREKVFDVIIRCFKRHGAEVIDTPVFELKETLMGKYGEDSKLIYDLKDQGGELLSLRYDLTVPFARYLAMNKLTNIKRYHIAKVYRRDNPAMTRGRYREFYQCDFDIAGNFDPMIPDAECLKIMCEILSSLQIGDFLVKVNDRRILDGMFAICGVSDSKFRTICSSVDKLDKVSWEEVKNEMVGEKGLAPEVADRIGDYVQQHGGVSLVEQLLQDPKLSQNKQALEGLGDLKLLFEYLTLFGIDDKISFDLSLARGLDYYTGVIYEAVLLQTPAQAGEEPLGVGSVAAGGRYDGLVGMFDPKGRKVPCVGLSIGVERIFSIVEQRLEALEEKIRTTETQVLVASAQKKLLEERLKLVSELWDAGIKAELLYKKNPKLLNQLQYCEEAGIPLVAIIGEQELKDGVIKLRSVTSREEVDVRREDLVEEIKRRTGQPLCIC

T4: Centromere B (UniProt P07199 1-599)
T4 construct: also called Cent B
T4 sequence: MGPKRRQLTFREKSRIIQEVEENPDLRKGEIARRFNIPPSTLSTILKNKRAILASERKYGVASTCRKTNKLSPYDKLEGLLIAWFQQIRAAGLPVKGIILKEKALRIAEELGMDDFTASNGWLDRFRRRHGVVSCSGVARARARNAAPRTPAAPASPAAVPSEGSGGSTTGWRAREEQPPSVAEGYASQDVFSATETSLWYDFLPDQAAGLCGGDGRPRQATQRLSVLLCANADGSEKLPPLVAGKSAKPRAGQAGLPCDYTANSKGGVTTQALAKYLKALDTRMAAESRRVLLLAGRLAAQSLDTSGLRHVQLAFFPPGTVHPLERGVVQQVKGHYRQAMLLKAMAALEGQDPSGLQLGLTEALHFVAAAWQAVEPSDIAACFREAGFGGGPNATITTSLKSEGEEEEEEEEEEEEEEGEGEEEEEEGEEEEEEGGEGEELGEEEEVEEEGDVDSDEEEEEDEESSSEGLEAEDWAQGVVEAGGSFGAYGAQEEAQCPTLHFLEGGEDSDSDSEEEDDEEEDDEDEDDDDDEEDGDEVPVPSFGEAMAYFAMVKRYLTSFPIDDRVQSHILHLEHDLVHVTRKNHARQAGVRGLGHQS

B1: CH557 (antibody, V domains shown)
VH: QVRLAQYGGGVKRLGATMTLSCVASGYTFNDYYIHWVRQAPGQGFELLGYIDPANGRPDYAGALRERLSFYRDKSMETLYMDLRSLRYDDTAMYYCVRNVGTAGSLLHYDHWGSGSPVIVSS
VL: EIVLTQSPATLSASPGERVTLTCRASRSVRNNVAWYQHKGGQSPRLLIYDASTRAAGVPARFSGSASGTEFTLAISNLESEDFTVYFCLQYNNWWTFGQGTRVDIK
notes: also called CH235.12; CH557_4A/293i
B2: CH493 (antibody, V domains shown)
VH: QVRLLQYGGGVKRPGASMTISCVASGYNFNDYYIHWVRQAPGQGLELMGWIDPSGGRTDYAGAFGDRVSMYRDKSMNTLYMDLRSLRSGDTAMYYCVRNVGTAGSLLHYDHWGLGVMVTVSS
VL: EIVLTQSPATLSVSPGERVTLSCRASQSVRNNLAWYRQKRGQAPRLLIYGASTRATGIPARFSGSGSGTEFTLTISSMQSEDFAVYYCQQYNNWWTFGQGTKVEIK
notes: also called CH235.9; DH493

Tests used:
SSA [1] = target: T5, SSA; assay: AtheNA, Ab 25 ug/ml
T5 construct: also called SSA (Ro)

SSB [2] = target: T1, SSB; assay: AtheNA, Ab 25 ug/ml
Sm (Smith antigen) [3] = target: T6, Sm (Smith antigen); assay: AtheNA, Ab 25 ug/ml
T6 construct: Protein complex

RNP (ribonucleoprotein) [4] = target: T7, RNP (ribonucleoprotein); assay: AtheNA, Ab 25 ug/ml
T7 construct: Protein-RNA complex

Scl-70 [5] = target: T2, Scl-70; assay: AtheNA, Ab 25 ug/ml
Jo-1 = target: T3, Jo-1; assay: AtheNA, Ab 25 ug/ml
Centromere B = target: T4, Centromere B; assay: AtheNA, Ab 25 ug/ml
Histones [6] = target: T8, Histones; assay: AtheNA, Ab 25 ug/ml
T8 construct: Mixture of proteins

SSB [7] = target: T1, SSB; assay: AtheNA, Ab 50 ug/ml
Source text: (§1) AtheNA Multi-Lyte ANA Plus Test System is one such assay. This is luminex-based assay, which is also used to screen patient sera.

Scl-70 [8] = target: T2, Scl-70; assay: AtheNA, Ab 50 ug/ml
Source text: as §1

Histones [9] = target: T8, Histones; assay: AtheNA, Ab 50 ug/ml
Source text: as §1

SSA [10] = target: T5, SSA; assay: AtheNA, Ab 6.25 ug/ml
Source text: as §1

SSB [11] = target: T1, SSB; assay: AtheNA, Ab 6.25 ug/ml
Source text: as §1

Sm (Smith antigen) [12] = target: T6, Sm (Smith antigen); assay: AtheNA, Ab 6.25 ug/ml
Source text: as §1

RNP (ribonucleoprotein) [13] = target: T7, RNP (ribonucleoprotein); assay: AtheNA, Ab 6.25 ug/ml
Source text: as §1

Histones [14] = target: T8, Histones; assay: AtheNA, Ab 6.25 ug/ml
Source text: as §1

Row | Binder | AtheNA signal (SSA [1]) | AtheNA signal (SSB [2]) | AtheNA signal (Sm (Smith antigen) [3]) | AtheNA signal (RNP (ribonucleoprotein) [4]) | AtheNA signal (Scl-70 [5]) | AtheNA signal (Jo-1) | AtheNA signal (Centromere B) | AtheNA signal (Histones [6]) | AtheNA signal (SSB [7]) | AtheNA signal (Scl-70 [8]) | AtheNA signal (Histones [9]) | AtheNA signal (SSA [10]) | AtheNA signal (SSB [11]) | AtheNA signal (Sm (Smith antigen) [12]) | AtheNA signal (RNP (ribonucleoprotein) [13]) | AtheNA signal (Histones [14])
1 | B1 | 4 relative luminescence units | 12 relative luminescence units | 6 relative luminescence units | 6 relative luminescence units | 4 relative luminescence units | 2 relative luminescence units | 25 relative luminescence units | 8 relative luminescence units | – | – | – | – | – | – | – | –
2 | B2 | – | – | – | – | – | – | – | – | 70 | 36 | 166 | 22 | 15 | 46 | 32 | 174
